Experiments:
Test in all cases: flow cytometry on cells
[1] = target: mouse TfR-1 expressed on REN cells (Mus musculus, UniProt Q62351)
[2] = target: mouse TrkB expressed on REN cells (Mus musculus, UniProt P15209)
[3] = target: mouse CD98hc expressed on REN cells (Mus musculus, UniProt P10852-2)

Sequence of mouse TrkB expressed on REN cells (P15209 32-821): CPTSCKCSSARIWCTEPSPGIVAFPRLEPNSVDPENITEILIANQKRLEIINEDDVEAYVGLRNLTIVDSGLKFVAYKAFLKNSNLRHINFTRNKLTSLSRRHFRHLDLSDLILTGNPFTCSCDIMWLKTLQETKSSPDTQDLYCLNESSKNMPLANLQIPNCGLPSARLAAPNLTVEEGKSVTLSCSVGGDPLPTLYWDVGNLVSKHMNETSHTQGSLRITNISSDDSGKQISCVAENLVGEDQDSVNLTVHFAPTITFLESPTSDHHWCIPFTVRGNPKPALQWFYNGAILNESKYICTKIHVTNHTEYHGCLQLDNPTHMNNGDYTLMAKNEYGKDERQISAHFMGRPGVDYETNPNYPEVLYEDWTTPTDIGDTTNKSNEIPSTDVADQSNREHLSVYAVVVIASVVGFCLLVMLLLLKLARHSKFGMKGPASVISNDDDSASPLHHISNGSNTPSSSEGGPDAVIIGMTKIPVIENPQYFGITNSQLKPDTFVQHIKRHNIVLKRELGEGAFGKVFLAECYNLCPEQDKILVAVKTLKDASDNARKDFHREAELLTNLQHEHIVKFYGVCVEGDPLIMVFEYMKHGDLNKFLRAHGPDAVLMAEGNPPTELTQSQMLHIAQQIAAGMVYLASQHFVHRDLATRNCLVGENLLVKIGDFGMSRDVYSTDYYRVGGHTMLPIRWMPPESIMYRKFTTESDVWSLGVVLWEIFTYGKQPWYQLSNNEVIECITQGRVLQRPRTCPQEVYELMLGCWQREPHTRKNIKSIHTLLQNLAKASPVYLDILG
Sequence of mouse TfR-1 expressed on REN cells (Q62351 whole entry): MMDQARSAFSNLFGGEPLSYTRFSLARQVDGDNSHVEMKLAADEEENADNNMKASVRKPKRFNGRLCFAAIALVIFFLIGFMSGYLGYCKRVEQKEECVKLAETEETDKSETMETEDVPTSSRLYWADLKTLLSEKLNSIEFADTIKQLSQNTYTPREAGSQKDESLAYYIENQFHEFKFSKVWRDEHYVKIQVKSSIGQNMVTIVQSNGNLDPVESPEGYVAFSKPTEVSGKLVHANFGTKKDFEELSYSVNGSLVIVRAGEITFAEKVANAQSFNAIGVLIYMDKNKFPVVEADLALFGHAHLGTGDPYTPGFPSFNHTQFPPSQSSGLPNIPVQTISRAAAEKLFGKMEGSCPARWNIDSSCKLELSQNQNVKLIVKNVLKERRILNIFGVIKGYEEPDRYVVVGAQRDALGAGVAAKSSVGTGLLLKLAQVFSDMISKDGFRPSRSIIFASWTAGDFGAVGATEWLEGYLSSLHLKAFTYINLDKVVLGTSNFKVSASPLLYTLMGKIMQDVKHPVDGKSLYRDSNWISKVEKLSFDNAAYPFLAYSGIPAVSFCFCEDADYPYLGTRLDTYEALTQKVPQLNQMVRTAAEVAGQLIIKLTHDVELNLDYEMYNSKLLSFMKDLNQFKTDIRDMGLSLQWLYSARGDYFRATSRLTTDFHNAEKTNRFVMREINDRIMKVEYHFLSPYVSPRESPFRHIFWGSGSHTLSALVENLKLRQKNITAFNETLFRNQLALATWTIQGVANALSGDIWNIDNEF

B1: TfR-1 IgG (clone 8D3) (antibody, V domains shown)
VH: EVQLVESGGGLVQPGNSLTLSCVASGFTFSNYGMHWIRQAPKKGLEWIAMIYYDSSKMNYADTVKGRFTISRDNSKNTLYLEMNSLRSEDTAMYYCAVPTSHYVVDVWGQGVSVTVSS
VL: DIQMTQSPASLSASLEEIVTITCQASQDIGNWLAWYQQKPGKSPQLLIYGATSLADGVPSRFSGSRSGTQFSLKISRVQVEDIGIYYCLQAYNTPWTFGGGTKLELK
[1]
  EC50: 3.1 nM

B2: 29D7 (TrkB-IgG) (antibody, V domains shown)
VH: EVQLVESGGGLVQPGGSLRLSCAASGYSFTAYFMNWVRQAPGKGLEWVARINPNNGDTFYTQKFKGRFTISRDNAKNSLYLQMNSLRAEDTAVYYCARRDYFGAMDYWGQGTLVTVSS
VL: DIQMTQSPSSLSASVGDRVTITCRASQTISNNLHWYQQKPGKAPKLLIKSASLAISGVPSRFSGSGSGTDFTLTISSLQPEDFATYYCQQSNSWPNTFGGGTKVEIK
[2]
  binding result: binds

B3: CD98hc IgG (antibody, V domains shown)
VH: EVQLVESGGGLVQPGRSLKLSCAASGFTFSDYYMAWVRQAPKKGLEWVASISYEGSSIYYGDSVKGRVTISRDNAKSTLYLQMNSLRSEDTATYYCARRGYYGYKPFDYWGQGVMVTVSS
VL: DIQMTQSPASLSASVGETVTIECRASEDIYNGLAWYQQKPGKSPQLLIYNIDNLHTGVPSRFSGSGSGTQYSLKINSLQSEDVASYFCQQYYTYAYTFGAGTKLELK
[3]
  EC50: 1.9 nM

Source: paper PMC10922565 (Cell chemical biology, 2023)
